Assay results from paper PMC4256047, “Structural and Functional Profiling of Environmental Ligands for Estrogen Receptors” (Environmental Health Perspectives, 2014).
Where no end group is shown, it is not given here. fluorescein = fluorescein label on the N-terminus of the peptide

Columns and labels:
Details in all cases: both partners purified
[1] = biological target: T1, human wt-ERα LBD (estrogen receptor alpha ligand-binding domain, amino acids 302-552) (human, UniProt P03372 302-552); experiment: fluorescence polarisation; fluorescence anisotropy; 4 nM fluorescein-SRC-1 NR2 peptide, LBD diluted 2-fold from 10 uM (ERα) or 20 uM (ERβ); with E2 at 20 uM (ERα) or 40 uM (ERβ); 20 mM Tris pH 8.0, 150 mM NaCl, 5 mM DTT, 10% glycerol
T1 sequence (looked up): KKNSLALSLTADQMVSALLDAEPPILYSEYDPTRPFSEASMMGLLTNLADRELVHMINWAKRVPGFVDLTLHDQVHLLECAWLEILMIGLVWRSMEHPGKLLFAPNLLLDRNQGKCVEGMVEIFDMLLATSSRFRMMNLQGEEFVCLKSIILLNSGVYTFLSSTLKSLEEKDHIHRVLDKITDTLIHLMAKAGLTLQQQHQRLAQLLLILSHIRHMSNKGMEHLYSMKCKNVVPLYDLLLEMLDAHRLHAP

[2] = biological target: T2, human wt-ERβ LBD (estrogen receptor beta ligand-binding domain, amino acids 261-502) (human, UniProt Q92731 261-502); experiment: as above
T2 construct: Cloned into pET-32a; N-terminal thioredoxine-hexahistidine tag removed with TEV protease; not shown: thioredoxin, N-terminal, cleaved; His6, N-terminal, cleaved
T2 sequence (Q92731 261-502): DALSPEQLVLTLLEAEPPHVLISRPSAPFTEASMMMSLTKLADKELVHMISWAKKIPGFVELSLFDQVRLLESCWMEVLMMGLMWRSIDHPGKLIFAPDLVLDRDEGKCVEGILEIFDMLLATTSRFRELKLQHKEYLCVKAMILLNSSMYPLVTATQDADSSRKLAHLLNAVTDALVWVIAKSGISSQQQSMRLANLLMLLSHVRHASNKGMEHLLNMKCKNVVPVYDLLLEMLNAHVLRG

[3] = biological target: T1, human wt-ERα LBD (estrogen receptor …); experiment: fluorescence polarisation; fluorescence anisotropy; 4 nM fluorescein-SRC-1 NR2 peptide, LBD diluted 2-fold from 10 uM (ERα) or 20 uM (ERβ); with BPA at 20 uM (ERα) or 40 uM (ERβ); 20 mM Tris pH 8.0, 150 mM NaCl, 5 mM DTT, 10% glycerol
[4] = biological target: T2, human wt-ERβ LBD (estrogen receptor …); experiment: as above
[5] = biological target: T1, human wt-ERα LBD (estrogen receptor …); experiment: fluorescence polarisation; fluorescence anisotropy; 4 nM fluorescein-SRC-1 NR2 peptide, LBD diluted 2-fold from 10 uM (ERα) or 20 uM (ERβ); with BPC at 20 uM (ERα) or 40 uM (ERβ); 20 mM Tris pH 8.0, 150 mM NaCl, 5 mM DTT, 10% glycerol
[6] = biological target: T2, human wt-ERβ LBD (estrogen receptor …); experiment: as above
[7] = biological target: T2, human wt-ERβ LBD (estrogen receptor …); experiment: fluorescence polarisation; fluorescence anisotropy; 4 nM fluorescein-SRC-1 NR2 peptide, LBD diluted 2-fold from 10 uM (ERα) or 20 uM (ERβ); with BP-2 at 20 uM (ERα) or 40 uM (ERβ); 20 mM Tris pH 8.0, 150 mM NaCl, 5 mM DTT, 10% glycerol
[8] = biological target: T2, human wt-ERβ LBD (estrogen receptor …); experiment: fluorescence polarisation; fluorescence anisotropy; 4 nM fluorescein-SRC-1 NR2 peptide, LBD diluted 2-fold from 10 uM (ERα) or 20 uM (ERβ); with TCBPA at 20 uM (ERα) or 40 uM (ERβ); 20 mM Tris pH 8.0, 150 mM NaCl, 5 mM DTT, 10% glycerol

B1: fluorescein-RHKILHRLLQEGS peptide corresponding to the NR box 2-binding motif of SRC-1 (peptide)
peptide: fluorescein-RHKILHRLLQEGS
notes: also called SRC-1 NR2 peptide; fluorescein-labeled SRC-1 NR2 peptide; source: bought: EZbiolab
Kd [1]: 110 nM | Kd [2]: 680 nM | Kd [3]: 1760 nM | Kd [4]: 1310 nM | Kd [5]: 9.07 µM | Kd [6]: 6.32 µM | Kd [7]: 990 nM | Kd [8]: 4.33 µM
